B1: Retinoic acid receptor beta, residues 85 to 161; numbered along this chain, P10826 (parent)
chain: YKPCFVCQDKSSGYHYGVSACEGCKGFFRRSIQKNMIYTCHRDKNCVINKVTRNRCQYCRLQKCFEVGMSKESVRND

Variants of: B1
Test: abundance fitness (aPCA) (normalised: wild type 0, dead -1); higher = more abundant; growth selection in yeast, the domain comes from the species named
Conditions: Homo sapiens

Abundance fitness, by site and new letter:
C40: A -0.901; I -0.667; K -0.848; P -0.703; S -0.885; D -0.825; N -0.999; T -0.539; G -0.817; Y -0.642; V -0.867; R -0.883; L -0.555; M -0.568; F -0.775; E -0.831; W -0.594
R30: W -0.647; T -0.707; V -1.02
V47: P 0.043; T 0.056; A 0.058; L 0.03; W -0.048; S 0.024; Y 0.107; Q 0.026; I -0.082; N -0.103; D 0.168; R -0.075; F -0.11; H -0.077; M 0.075; G -0.096; C 0.003
C46: I -0.711; K -1; E -0.474; R -0.767; N -0.704; D -0.352; F -0.988; S -0.562; P -0.94; L -0.668; G -0.123; Q -1.01; W -0.681; V -0.737; H -0.475; T -0.53
N49: R -0.43; C -0.598; T 0.017; I -0.239; A -0.284; W -0.327; Q -0.328; G -0.255; E 0.003; L -0.218; S -0.116; Y -0.37; K -0.345; D 0.235; F -0.368; V -0.546; H -0.372; P -0.431
D43: G 0.012; M -0.076; V -0.103; Y -0.103; Q -0.019; R -0.024; I -0.038; F -0.014; E 0.07; N -0.072; H -0.32; A 0.026; P -0.471; W -0.169; C -0.436; T 0.007; S -0.034; K -0.001; L -0.066
T39: N 0.003; G -0.156; H 0.029; P -0.327; Q 0.076; M 0.061; E -0.025; F 0.105; S -0.01; K 0.056; Y -0.009; D 0.078; A -0.017; L 0.059; C -0.047; W -0.097; R -0.01
R42: W 0.15; V 0.177; Y 0.033; M 0.228; P -1.01; D -0.047; C 0.145; Q 0.121; A 0.203; T -0.016; K 0.067; H -0.412; I -0.114; S 0.014; N 0.115; E 0.07
N45: Y -0.477; W -0.302; Q 0.078; L 0.02; D -0.151; P -0.025; I 0.054; F -0.251; A 0.068; M -0.035; V 0.039; G -0.044; R 0.059; H -0.021; K 0.053; S -0.057; E 0.049; C 0.02
H41: P -0.044; W 0.016; A -0.006; R -0.101; L -0.077; S -0.089; K -0.103; E 0.131; Y -0.178; M 0.081; Q 0.029; G -0.024; C -0.157; N -0.121; D 0.051; T 0.129; I -0.064
I48: T -0.161; V -0.065; W -0.647; P -0.417; M 0.042; H -0.505; S -0.48; N -0.376; L -0.096
